The results in this text go back to patent US20240197902A1 (published 2024).

The chains are these.
B1: Activin A (ligand)
chain: GLECDGKVNICCKKQFFVSFKDIGWNDWIIAPSGYHANYCEGECPSHIAGTSGSSLSFHSTVINHYRMRGHSPFANLKSCCVPTKLRPMSMLYYDDGQNIIKKDIQNMIVEECGCS
B2: Activin B (ligand)
chain: GLECDGRTNLCCRQQFFIDFRLIGWNDWIIAPTGYYGNYCEGSCPAYLAGVPGSASSFHTAVVNQYRMRGLNPGTVNSCCIPTKLSTMSMLYFDDEYNIVKRDVPNMIVEECGCA
B3: GDF11 (ligand)
chain: NLGLDCDEHSSESRCCRYPLTVDFEAFGWDWIIAPKRYKANYCSGQCEYMFMQKYPHTHLVQQANPRGSAGPCCTPTKMSPINMLYFNDKQQIIYGKIPGMVVDRCGCS
B4: BMP10 (ligand)
chain: NAKGNYCKRTPLYIDFKEIGWDSWIIAPPGYEAYECRGVCNYPLAEHLTPTKHAIIQALVHLKNSQKASKACCVPTKLEPISILYLDKGVVTYKFKYEGMAVSECGCR
B5: BMP9 (ligand)
chain: SAGAGSHCQKTSLRVNFEDIGWDSWIIAPKEYEAYECKGGCFFPLADDVTPTKHAIVQTLVHLKFPTKVGKACCVPTKLSPISVLYKDDMGVPTLKYHYEGMSVAECGCR

One assay deals with ActRIIB L38N/L79R. The assay is described as follows: SPR; 37 C.
Usually Kd stands for a measure of binding affinity in units of concentration. A low value points to tighter binding. On to B1, for which the Kd turned out to be 0.339 nM.

As for B2, the Kd came to 0.0369 nM.

For a further assay, the target named is ActRIIB F82T. The assay is described as follows: SPR; 37 C. For orientation: Surface plasmon resonance follows binding to a sensor surface in real time, without labels.
B1 displayed a Kd of 0.0109 nM.

Turning to B2, the Kd was found to be 0.012 nM.

In a further assay the target is ActRIIB E50L. The assay is described as follows: SPR; 37 C.
As to B1, the affinity, expressed as Kd, was 0.0456 nM.

Take B2: the dissociation constant (Kd) is 0.159 nM.

The next assay concerns the target ActRIIB-G1Fc. Description: SPR; 37 C.
B1 gave a Kd of 0.0146 nM.

The molecule B2 came in with a Kd of 0.0085 nM.

The target in another assay is ActRIIB V99G. The assay is described as follows: SPR; 37 C.
In turn, B2 registered a Kd of 0.847 nM.

A further assay has as its target ActRIIB L38N/L79R. The assay is described as follows: SPR; 37 C. The source holds these as a separate data set.
Turning to B3, the affinity, expressed as Kd, was 0.0886 nM.

B4: the affinity, expressed as Kd, was 0.293 nM.

The molecule B5 displayed a Kd of 2.13 nM.

The next assay has as its target ActRIIB F82T. Description: SPR; 37 C. The source holds these as a separate data set.
On to B3, for which the Kd was determined as 0.0267 nM.

Take B4: binding was put at a Kd of 0.0092 nM.

A further assay concerns the target ActRIIB E50L. The assay is described as follows: SPR; 37 C. This is another data set of the same source.
Turning to B3, the Kd came to 0.187 nM.

In the case of B4, the Kd was 0.163 nM.

Molecule B5 registered a Kd of 0.103 nM.

The target in a further assay is ActRIIB-G1Fc. The assay is described as follows: SPR; 37 C. The source holds these as a separate data set.
Consider B3, for which binding was characterised by a dissociation constant (Kd) of 0.01 nM.

For B4, the Kd worked out at 0.0409 nM.

For B5, binding was characterised by a dissociation constant (Kd) of 0.0911 nM.

The target in a further assay is ActRIIB V99G. Description: SPR; 37 C. This is another data set of the same source.
In the case of B3, the Kd amounted to 0.184 nM.

In the case of B4, the Kd amounted to 0.951 nM.

A further assay deals with L79W. Description: SPR; 25 C.
B3 displayed a Kd of 0.044 nM.

Take B4: the Kd is 0.16 nM.

Turning to B1, binding was put at a Kd of 0.26 nM.

Molecule B5 yielded a Kd of 0.11 nM.

In the next assay the target is L38Q. Description: SPR; 25 C.
Regarding B3, binding was put at a Kd of 0.021 nM.

The molecule B4 had a Kd of 0.089 nM.

The molecule B1 returned a Kd of 0.2 nM.

With B5, binding was characterised by a dissociation constant (Kd) of 0.033 nM.

In another assay the target is N35E. The assay is described as follows: SPR; 25 C.
B3 displayed a Kd of 0.028 nM.

For B4, the Kd turned out to be 0.28 nM.

For the molecule B1, the Kd was 0.8 nM.

The next assay deals with F82T. Description: SPR; 25 C.
Molecule B3 registered a Kd of 0.018 nM.

Molecule B4 yielded a Kd of 0.14 nM.

For the molecule B5, the Kd worked out at 0.082 nM.

The next assay has as its target Q98L. Description: SPR; 25 C.
For the molecule B3, binding was put at a Kd of 0.043 nM.

For B4, binding was put at a Kd of 0.065 nM.

Molecule B1 registered a Kd of 0.22 nM.

B5 came in with a Kd of 0.071 nM.

A further assay has as its target Q98I. Description: SPR; 25 C.
The molecule B3 displayed a Kd of 0.049 nM.

In turn, B4 displayed a Kd of 0.21 nM.

Consider B1, for which the Kd worked out at 0.157 nM.

Take B5: binding was characterised by a dissociation constant (Kd) of 0.059 nM.

The next assay addresses N35Q. The assay is described as follows: SPR; 25 C.
In the case of B3, the Kd was found to be 0.02 nM.

B4 gave a Kd of 0.27 nM.

The molecule B1 gave a Kd of 0.32 nM.

The target of the next assay is Q98K. The assay is described as follows: SPR; 25 C.
The molecule B3 gave a Kd of 0.037 nM.

Consider B4, for which the affinity, expressed as Kd, was 0.068 nM.

In the case of B1, the Kd is 0.145 nM.

In turn, B5 registered a Kd of 0.069 nM.

The next assay deals with Q98R. The assay is described as follows: SPR; 25 C.
As for B3, the Kd was 0.02 nM.

B4 yielded a Kd of 0.32 nM.

For B1, the Kd stood at 0.3 nM.

For the molecule B5, the Kd is 0.074 nM.

A further assay has as its target N35F. Description: SPR; 25 C.
Consider B3, for which binding was characterised by a dissociation constant (Kd) of 0.017 nM.

In turn, B4 registered a Kd of 0.22 nM.

The molecule B1 registered a Kd of 0.29 nM.

For the next assay, the target named is L38R. Description: SPR; 25 C.
Take B3: the Kd is 0.007 nM.

As to B4, the Kd was 0.11 nM.

In turn, B1 registered a Kd of 0.23 nM.

For the molecule B5, the Kd was 0.05 nM.

The target of a further assay is Q98V. Description: SPR; 25 C.
On to B3, for which the Kd was found to be 0.033 nM.

The molecule B4 registered a Kd of 0.048 nM.

For B1, binding was put at a Kd of 0.16 nM.

For B5, the Kd came to 0.047 nM.

Another assay deals with ActRIIB-G1Fc. The assay is described as follows: SPR; 25 C.
Turning to B3, the Kd amounted to 0.011 nM.

The molecule B4 registered a Kd of 0.169 nM.

B1 gave a Kd of 0.25 nM.

Turning to B5, the Kd was determined as 0.059 nM.

Another assay concerns the target Q98A. Description: SPR; 25 C.
For B3, the affinity, expressed as Kd, was 0.037 nM.

As to B4, binding was put at a Kd of 0.21 nM.

B1 showed a Kd of 0.155 nM.

On to B5, for which the Kd is 0.043 nM.

The target in a further assay is L38D. Description: SPR; 25 C.
Regarding B3, binding was put at a Kd of 0.03 nM.

As for B4, the affinity, expressed as Kd, was 0.15 nM.

B1 came in with a Kd of 0.23 nM.

As to B5, binding was characterised by a dissociation constant (Kd) of 0.063 nM.

The target in the next assay is K55A. Description: SPR; 37 C.
As to B3, the Kd was 0.026 nM.

Molecule B4 displayed a Kd of 0.023 nM.

The molecule B1 yielded a Kd of 0.046 nM.

The molecule B5 registered a Kd of 0.142 nM.

Another assay has as its target L79K. Description: SPR; 37 C.
Take B3: binding was characterised by a dissociation constant (Kd) of 0.14 nM.

Take B4: the affinity, expressed as Kd, was 1.4 nM.

In turn, B1 came in with a Kd of 0.13 nM.

For the molecule B5, the Kd is 1.1 nM.

Another assay deals with K55A/F82I. Description: SPR; 37 C.
The molecule B3 registered a Kd of 0.09 nM.

B4 gave a Kd of 0.007 nM.

In turn, B1 gave a Kd of 0.047 nM.

With B5, the Kd was 0.134 nM.

The target in a further assay is F82K. The assay is described as follows: SPR; 37 C.
In the case of B3, the Kd is 0.057 nM.

In the case of B4, binding was put at a Kd of 0.008 nM.

In turn, B1 registered a Kd of 0.093 nM.

In the next assay the target is F82I. Description: SPR; 37 C.
Take B3: the Kd came out at 0.01 nM.

Regarding B4, the Kd worked out at 0.008 nM.

Molecule B1 registered a Kd of 0.078 nM.

B5 showed a Kd of 0.275 nM.

For the next assay, the target named is K74A. Description: SPR; 37 C.
B3 gave a Kd of 0.43 nM.

Turning to B4, the affinity, expressed as Kd, was 0.033 nM.

Take B1: the Kd was found to be 0.034 nM.

B5 gave a Kd of 0.36 nM.

A further assay concerns the target L79K/F82K. The assay is described as follows: SPR; 37 C.
For the molecule B3, the Kd turned out to be 1.6 nM.

With B4, the Kd came to 0.068 nM.

Regarding B1, binding was put at a Kd of 0.64 nM.

For the next assay, the target named is K55E. The assay is described as follows: SPR; 37 C.
Molecule B3 displayed a Kd of 0.052 nM.

For the molecule B4, the Kd worked out at 0.014 nM.

The molecule B1 gave a Kd of 0.064 nM.

Turning to B5, binding was put at a Kd of 0.27 nM.

The next assay addresses ActRIIB-G1Fc. Description: SPR; 37 C. This is another data set of the same source.
B3 had a Kd of 0.012 nM.

B1 showed a Kd of 0.047 nM.

For the molecule B5, binding was characterised by a dissociation constant (Kd) of 0.037 nM.

The target of the next assay is ActRIIB F82T. The assay is described as follows: SPR; 37 C; transient.
With B5, the Kd was 6.17 nM.
